Residue numbers refer to the chain shown, from its start. Each block holds one binder with its values, some of them ahead of it.
Tests used:
[1] = molecular target: T1, purified human/cynomolgus/dog/mouse/rat or minipig DLL3 antigen (ELISA coat) (human/cynomolgus/dog/mouse/rat or …); test: ELISA, plate coated with purified DLL3 antigen, HRP secondary (FIG. 8)
T1 construct: May be the same protein as the his-tagged antigen used for BLI
Experimental: (§1) Binding affinity of the novel antigen binding constructs to a purified human/cynomolgus/dog/mouse/rat or minipig DLL3 antigen was assessed using ELISA. For this assay, a 96 well ELISA plate was coated with the DLL3 antigen diluted to a concentration of […] in coating buffer (0.05M sodium carbonate-bicarbonate buffer, pH 9.6). 100 μl of this coating solution was added to each well in the plate and incubate at 4° C. overnight. The plate was washed 3 times with 300 μl per well of washing buffer (PBS with 0.05% Tween-20). After the last wash, the plate was blocked by adding to each well 200 μl of blocking buffer (PBS with 1% BSA) warmed to room temperature. The plate was then incubated at room temperature for 1 hour under gentle agitation. After blocking, the plate was washed 3 times with 300 μl per well of washing buffer. Dilution samples for each minibody were created by making 2.5× dilutions from a starting sample at 100 ng/mL, or 250 ng/mL, or 1000 ng/mL or 3000 ng/mL in 100 μL sample buffer (PBS with 1% BSA). The dilution samples were transferred to the assay plate and incubated at room temperature for 1 hour under gentle agitation. The plate was then washed 3 times with 300 μl per well of washing buffer.
Detection was performed by adding 100 μl of HRP labeled detection secondary antibody at an appropriate dilution and incubating the plate at room temperature for 1 hour under gentle agitation. The plate was then washed 3 times with 300 μl per well of washing buffer. For color development, 100 μl of TMB substrate regent, pre-warmed to room temperature, was added to the plate and incubated in the dark at room temperature for 15 min. The reaction was then stopped by adding 100 μl of 650 nm stop solution to the plate and mixed for 1 min at room temperature under gentle agitation. The plate is recorded by reading OD at 650 nm in a plate reader within 20 min after terminating the reaction.

[2] = molecular target: T1, purified human/cynomolgus/dog/mouse/rat …; test: ELISA on plate-coated recombinant DLL3 antigen, A650 readout, left panel 'DLL3 ELISA'; the table gives no unit, nM is from the axis 'Antibody Concentration (nM)'
Experimental: as §1, with “The dilution samples were transferred to the assay plate and incubated at room temperature for 1 hour under gentle agitation. The plate was then washed 3 times with 300 μl per well of washing buffer.” left out
(§2) Detection was performed by adding 100 μl of HRP labeled detection secondary antibody at an appropriate dilution and incubating the plate at room temperature for 1 hour under gentle agitation. […] The plate is recorded by reading OD at 650 nm in a plate reader within 20 min after terminating the reaction.

[3] = molecular target: T2, his-tagged-DLL3 antigen (purified human/cynomolgus/dog/mouse/rat or minipig DLL3 antigen) (human/cynomolgus/dog/mouse/rat or …); test: biolayer interferometry, his-tagged DLL3 on a Ni-NTA tip, minibody at 100 nM; the table gives no unit, nm is from the axis 'Binding (nm)'
T2 construct: Antigen loaded on nickel-NTA tips for biolayer interferometry; also called Delta-like protein 3
T2 sequence (Q9NYJ7 whole entry): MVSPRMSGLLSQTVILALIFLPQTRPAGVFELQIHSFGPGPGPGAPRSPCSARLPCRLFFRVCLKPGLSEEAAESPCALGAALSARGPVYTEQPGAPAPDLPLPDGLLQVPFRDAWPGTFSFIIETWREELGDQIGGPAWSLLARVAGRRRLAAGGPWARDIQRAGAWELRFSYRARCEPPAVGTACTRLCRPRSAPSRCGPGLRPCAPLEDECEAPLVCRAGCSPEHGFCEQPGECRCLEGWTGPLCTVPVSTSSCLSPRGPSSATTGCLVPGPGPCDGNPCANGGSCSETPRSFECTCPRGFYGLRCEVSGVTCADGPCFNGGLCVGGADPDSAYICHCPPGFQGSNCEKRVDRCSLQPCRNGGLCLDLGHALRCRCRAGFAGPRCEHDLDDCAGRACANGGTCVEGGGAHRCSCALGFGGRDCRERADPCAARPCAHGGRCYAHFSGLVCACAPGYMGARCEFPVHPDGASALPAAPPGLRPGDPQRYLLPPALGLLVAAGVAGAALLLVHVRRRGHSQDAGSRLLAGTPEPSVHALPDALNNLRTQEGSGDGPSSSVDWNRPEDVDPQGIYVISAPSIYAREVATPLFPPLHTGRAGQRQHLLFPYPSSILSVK
Experimental: (§3) As disclosed herein, the binding kinetics of the novel antigen binding constructs to a purified human/cynomolgus/dog/mouse/rat or minipig DLL3 antigen was assessed using biolayer interferometry (TABLE 9) (FIG. 9). The his-tagged-DLL3 antigen was diluted in phosphate buffer saline (PBS) at 10 μg/mL and loaded on a nickel-NTA tip until saturation. The on-rate (Kon) and off-rate (Koff), and the dissociation constant KD, where recorded on Octet BLItz instrument. Dilution samples of the antigen binding construct were prepared in PBS at concentrations between 100 nM and 0.1 nM, by 2.5× dilutions and binding curves recorded at each concentration. Off-rate curves were recorded by immersion of the tip in PBS.

[4] = molecular target: T2, his-tagged-DLL3 antigen (purified …); test: biolayer interferometry (Octet BLItz), his-tagged DLL3 on nickel-NTA tip, minibody in solution
Experimental: as §3

[5] = molecular target: T1, purified human/cynomolgus/dog/mouse/rat …; test: ELISA on plate-coated recombinant DLL3 antigen, A650 readout, panel with IAB57M1-7, IAB57M2-8, IAB57M1-3 and IAB57M2-6; the table gives no unit, nM is from the axis 'Antibody Concentration (nM)'
Experimental: as §1, with “The dilution samples were transferred to the assay plate and incubated at room temperature for 1 hour under gentle agitation. The plate was then washed 3 times with 300 μl per well of washing buffer.” left out
as §2

[6] = molecular target: T3, DLL3 on tumor cells of the SHP-77 and NCI-H82 cell lines (UniProt Q9NYJ7 27-618, limits assumed); test: flow cytometry on NCI-H82 tumor cells, mean fluorescence; the legend gives no unit, nM is from the axis '[Minibody],nM'
T3 construct: whole, on cells; also called cellular targets
T3 sequence (looked up): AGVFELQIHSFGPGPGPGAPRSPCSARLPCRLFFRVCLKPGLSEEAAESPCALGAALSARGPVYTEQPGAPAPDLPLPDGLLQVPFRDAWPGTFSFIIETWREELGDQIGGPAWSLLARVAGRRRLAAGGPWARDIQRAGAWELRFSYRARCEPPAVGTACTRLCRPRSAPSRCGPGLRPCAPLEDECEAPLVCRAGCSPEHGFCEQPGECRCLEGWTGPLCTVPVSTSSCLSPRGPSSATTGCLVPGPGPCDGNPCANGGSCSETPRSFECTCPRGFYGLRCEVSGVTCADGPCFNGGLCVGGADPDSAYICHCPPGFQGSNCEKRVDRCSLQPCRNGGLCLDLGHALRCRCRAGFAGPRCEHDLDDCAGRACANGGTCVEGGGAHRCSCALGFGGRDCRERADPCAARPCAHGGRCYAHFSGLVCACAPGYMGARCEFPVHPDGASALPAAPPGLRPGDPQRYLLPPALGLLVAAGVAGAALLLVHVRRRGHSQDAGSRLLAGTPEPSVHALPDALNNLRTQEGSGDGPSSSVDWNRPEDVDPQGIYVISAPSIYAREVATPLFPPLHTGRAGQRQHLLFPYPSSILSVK
Experimental: (§4) As disclosed herein, the binding of constructs to cellular targets was assessed using flow cytometry. Stock of 2.5× serial dilution of minibodies were created starting from a concentration of 100 nM in 180 μl FACS buffer (PBS 2% FBS). Cells were added to a Corning V-bottom polypropylene cell culture plate at 200,000 cells/well. The cells were centrifuged at 100 rpm for 3 minutes and the supernatant discarded. The minibody dilution series were transferred to the plate containing cell pellets and incubated for 1 hr at 4° C. The plate was then washed 3 times with FACS buffer at 200 μl/well, discarding supernatant after each wash by centrifugation at 1000 rpm. 50 μl/well of detection antibody R&D AlexaFluor-647 Goat anti Human (H+L) was added at a 1:100 dilution in FACS buffer and incubated at 4° C. 1 hr. The plate was washed 3 times with FACS buffer at 200 μl/well, discarding supernatant after each wash by centrifuging at 1000 rpm. Cells were then fixed by adding 100 μl of 1% paraformaldehyde in PBS and incubating at room temperature for 15 minutes. 100 μl of PBS were added to each well and the plate was analyzed by flow cytometry using the allophycocyanin fluorescence setting.

[7] = molecular target: T3, DLL3 on tumor cells of the SHP-77 and …; test: flow cytometry on SHP-77 tumor cells, mean fluorescence; the legend gives no unit, nM is from the axis '[Minibody],nM'
Experimental: as §4

[8] = molecular target: T1, purified human/cynomolgus/dog/mouse/rat …; test: ELISA on plate-coated recombinant DLL3 antigen, A650 readout, panel with IAB57M1-7, IAB57M2-8, IAB57M1-3 and IAB57M2-6
Experimental: as §1, with “The dilution samples were transferred to the assay plate and incubated at room temperature for 1 hour under gentle agitation. The plate was then washed 3 times with 300 μl per well of washing buffer.” left out
as §2

T1 sequence (Q9NYJ7 whole entry): as the sequence (Q9NYJ7 whole entry) above

B5: IAB57M1-1 (other)
chain: EIVMTQSPATLSVSPGERATLSCKASQSVSNDVVWYQQKPGQAPRLLIYYASNRYTGIPARFSGSGSGTEFTLTISSLQSEDFAVYYCQQDYTSPWTFGQGTKLEIKGSTSGGGSGGGSGGGGSSQVQLVQSGAEVKKPGASVKVSCKASGYTFTNYGMNWVRQAPGQGLEWMGWINTYTGEPTYADDFKGRVTMTTDTSTSTAYMELRSLRSDDTAVYYCARIGDSSPSDYWGQGTLVTVSSEPKSSDKTHTCPPCPPCGGGSSGGGSGGQPREPQVYTLPPSREEMTKNQVSLTCLVKGFYPSDIAVEWESNGQPENNYKTTPPVLDSDGSFFLYSKLTVDKSRWQQGNVFSCSVMHEALHNHYTQKSLSLSPG
notes: Parental minibody; also called parental minibody IAB57M1-1
- EC50 [1]: 0.0946 nM
- EC50 [2]: 0.115 nM
- Kd [4]: 3.33 nM
- koff [4]: 0.00279 s⁻¹
- kon [4]: 838000 M⁻¹ s⁻¹

B6: IAB57M1-5 (other)
chain: B5 chain with Y55N
notes: Signal peptide left out
- EC50 [1]: 0.125 nM

B7: IAB57M1-7 (other)
chain: B5 chain with Y50D, Y55N
notes: Signal peptide left out
- EC50 [1]: 0.111 nM

B8: IAB57M1-3 (other)
chain: B5 chain with Y50D
notes: Signal peptide left out
- EC50 [1]: 0.109 nM
- EC50 [6]: 0.04 nM
- EC50 (read off the curve) [8]: ~0.1 nM
- R equilibrium [3]: 1.04 nm
- EC50 [7]: 0.01 nM
- Kd [4]: 4 nM
- koff [4]: 0.00239 s⁻¹
- kon [4]: 599000 M⁻¹ s⁻¹

Further lines, results first:

- EC50 [1]: 0.12 nM
- EC50 [2]: 0.132 nM
- R equilibrium [3]: 0.876 nm
- Kd [4]: 3.07 nM
- koff [4]: 0.00214 s⁻¹
- kon [4]: 698000 M⁻¹ s⁻¹
B1: IAB57M2-2 (other)
chain: QVQLVQSGAEVKKPGASVKVSCKASGYTFTNYGMNWVRQAPGQGLEWMGWINTYTGEPTYADDFKGRVTMTTDTSTSTAYMELRSLRSDDTAVYYCARIGDSSPSDYWGQGTLVTVSSGSTSGGGSGGGSGGGGSSEIVMTQSPATLSVSPGERATLSCKASQSVSNDVVWYQQKPGQAPRLLIYYASNRYTGIPARFSGSGSGTEFTLTISSLQSEDFAVYYCQQDYTSPWTFGQGTKLEIKEPKSSDKTHTCPPCPPCGGGSSGGGSGGQPREPQVYTLPPSREEMTKNQVSLTCLVKGFYPSDIAVEWESNGQPENNYKTTPPVLDSDGSFFLYSKLTVDKSRWQQGNVFSCSVMHEALHNHYTQKSLSLSPG
notes: Parental minibody; Signal peptide left out; also called parental minibody IAB57M2-2

- EC50 [1]: 0.123 nM
B2: IAB57M2-8 (other)
chain: B1 chain with Y186D, Y191N
notes: Signal peptide left out

- EC50 [1]: 0.118 nM
- R equilibrium [3]: 0.911 nm
- Kd [4]: 4.84 nM
- koff [4]: 0.00281 s⁻¹
- kon [4]: 581000 M⁻¹ s⁻¹
B3: IAB57M2-4 (other)
chain: B1 chain with Y186D
notes: Signal peptide left out

- EC50 [1]: 0.161 nM
- EC50 [5]: 0.157 nM
- EC50 [6]: 0.063 nM
- EC50 [7]: 0.014 nM
- Kd [4]: < 0.001 nM
- koff [4]: < 1e-07 s⁻¹
- kon [4]: 785000 M⁻¹ s⁻¹
B4: IAB57M2-6 (other)
chain: B1 chain with Y191N
notes: Signal peptide left out
